Syk: the “tyrosine phosphorylation of Syk (IP of Syk, western blot with pan-phospho-tyrosine antibody 4G10)” value was “P17, P19 and P23 were able to induce tyrosine phosphorylation of Syk” in the data set with DAP12 mutant P17; “P17, P19 and P23 were able to induce tyrosine phosphorylation of Syk” in the data set with DAP12 mutant P23; “P17, P19 and P23 were able to induce tyrosine phosphorylation of Syk” in the data set with DAP12 mutant P19.

Chain of DAP12 mutant P17 (chain, as listed by the source mutant): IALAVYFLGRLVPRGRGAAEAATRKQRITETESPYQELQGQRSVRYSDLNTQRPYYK
Chain of DAP12 mutant P19 (chain, as listed by the source mutant): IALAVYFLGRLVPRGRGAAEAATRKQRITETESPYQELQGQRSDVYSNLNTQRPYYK
Chain of DAP12 mutant P23 (chain, as listed by the source mutant): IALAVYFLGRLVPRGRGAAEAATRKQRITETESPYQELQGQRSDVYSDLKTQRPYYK
